The source of these data is patent publication US12077599 (SEOUL NATIONAL UNIVERSITY R AND DB FOUNDATION NATIONAL …, dated 2024).

T1: ROS1 synthetic peptide (amino acids 39-56 of ROS1 combined to GGGC) conjugated to BSA (human, not fully specified; conjugated to bovine serum albumin (BSA) or ovalbumin (OVA))
T1 peptide: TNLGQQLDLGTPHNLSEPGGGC

B1: alanine-substituted ROS1-hFc fusion protein, Gly42 replaced with alanine (Fc fusion, not shown: a dimerising Fc or GST; small tags and cut ends)
chain: CVTNLAQQLDLGTPHNLSEPCIQGCHFWNSVDQKNCALKCRESCEVGCSSAEGAYEEEVLENADLPTAPFASSIGSHNMTLRWKSANFSGVKYIIQWKYAQLLGSWTYTKTVSRPSYVVKPLHPFTEYIFRVVWIFTAQLQLYSPPSPSYRTHPHGVPETAPLIRNIESSSPDTVEVSWDPPQFPGGPILGYNLRLISKNQKLDAGTQRTSFQFYSTLPNTIYRFSIAAVNEVGEGPEAESSITTSSSAVQQEE
notes: One of the 13 single alanine mutants from Gly42 to Ser54; also called G42A
B2: alanine-substituted ROS1-hFc fusion protein, L47A mutant (Fc fusion, not shown: a dimerising Fc or GST; small tags and cut ends)
chain: B1 chain with A6G, L11A
notes: also called L47A mutant of ROS1 protein
B3: alanine-substituted ROS1-hFc fusion protein, Asp46 replaced with alanine (Fc fusion, not shown: a dimerising Fc or GST; small tags and cut ends)
chain: B1 chain with A6G, D10A
notes: also called D46A
B4: alanine-substituted ROS1-hFc fusion protein, Gln44 replaced with alanine (Fc fusion, not shown: a dimerising Fc or GST; small tags and cut ends)
chain: B1 chain with A6G, Q8A
notes: also called Q44A
B5: alanine-substituted ROS1-hFc fusion protein, G48A mutant (Fc fusion, not shown: a dimerising Fc or GST; small tags and cut ends)
chain: B1 chain with A6G, G12A
notes: also called G48A mutant of ROS1 protein
B6: alanine-substituted ROS1-hFc fusion protein, Gln43 replaced with alanine (Fc fusion, not shown: a dimerising Fc or GST; small tags and cut ends)
chain: B1 chain with A6G, Q7A
notes: also called Q43A
B7: alanine-substituted ROS1-hFc fusion protein, L45A mutant (Fc fusion, not shown: a dimerising Fc or GST; small tags and cut ends)
chain: B1 chain with A6G, L9A
notes: also called L45A mutant of ROS1 protein
B8: 3B20 scFv (phage-displayed clone) (scFv)
scFv: LTQPSSVSANLGGTVKITCSGGSYGYGWYQQKAPGSAPVTVIYDNTNRPSDIPSRFSGSKSGSTGTLTITGVQVEDEAVYYCGSADSSSIATFGAGTTLTVLGQSSRSSGGGGSSGGGGSAVTLDESGGGLQTPGGTLSLVCKASGFSFSDRGMHWMRQAPGKGLEYVGAISGDGYITHYGAAVKGRATISRDNGQSTVRLQLNNLRAEDTATYYCTRGGGGNIDAWGHGTEVIVSSTS
notes: the phage coat fusion is not described
B9: 3B20 scFv-Cκ fusion protein (scFv)
chain: B8 scFv
notes: Coated on the plate in the alanine scanning ELISA; not shown: human kappa light chain constant region (Cκ)
B10: 3B20-G1K scFv (phage-displayed clone) (scFv)
scFv: B8 scFv with V39A, G219K
notes: Clone from the HCDR3 first-residue NNK library in pComb3XSS, tested as phage in ELISA; also called 3B20-GIK
B11: 3B20 scFv-rFc fusion protein (Fc fusion, rabbit)
chain: B8 scFv
notes: domain: fragment crystallizable region Fc (rFc); scFv fused with rabbit Fc, expressed from modified pCEP4; also called 3B20-rFc; scFv(3B20)-rFc fusion protein; not shown: rabbit antibody fragment crystallizable region Fc (rFc)

The target in one test is T2, bovine serum albumin (bovine, UniProt P02769 25-607).
T2 construct: Negative control coating in the alanine scanning ELISA; also called BSA
Nature of the test: ELISA, BSA coated, ROS1-hFc mutant in solution, HRP anti-hFc. The protocol:
(§1) For alanine scanning mutagenesis of the 3B20 scFv, microtiter plates (Corning Costar) were coated with 100 ng of the 3B20 scFv-Cκ fusion protein, BSA, or the irrelevant scFv-Cκ fusion protein overnight at 4° ° C. After blocking, the plates were incubated with alanine-substituted ROS1-human antibody Fc (hFc) fusion proteins (each amino acid residue from the 42th amino acid residue (Gly) to the 54th amino acid residue (Ser) was replaced with alanine) or a wild type ROS1-hFc fusion protein. The amount of bound fusion protein was determined using an HRP-conjugated rabbit anti-human IgG Fc antibody (Thermo Fisher Scientific, Rockford, IL, USA).
(§2) Example 2. Epitope Mapping of the 3B20 scFv by Alanine Scanning Mutagenesis Assay To further confirm the epitope of the 3B20 scFv, alanine scanning mutagenesis assay was performed using recombinant ROS1 proteins corresponding to amino acids 37-290. First, alanine-substituted ROS1 mutants in which any one of amino acid residues from Gly42 to Ser54 of ROS1 was substituted were prepared. After coating the microtiter plate well with the 3B20 scFv-Cκ fusion protein, BSA or irrelevant scFv-Cκ fusion protein, the plate was incubated with the alanine-substituted ROS1-hFc fusion protein or wild-type ROS1-hFc fusion protein. The amount of the ROS1-hFc fusion protein combined to the plate was measured using the HRP-conjugated anti-hFc antibody and ATBS solution. The obtained result was shown in FIG. 2a (3B20 scFv-Cκ fusion protein coating), 2b (BSA coating) and 2c (irrelevant scFv-Cκ fusion protein coating).

Test [1] concerns the target T1, ROS1 synthetic peptide (amino acids …). Put plainly: phage ELISA after five rounds of biopanning on the peptide conjugate. From the text: Three White Leghorn chickens were immunized and boosted three times with the synthetic peptide ([…] […] (SEQ ID NO: 16); fusion polypeptide in which the 39th to 56th amino acid regions of ROS1 (GenBank Accession No. NP_002935.2) combined to "GGGC") conjugated to keyhole limpet hemocyanin (Peptron; Daejun, S. Korea). A phage display of a chicken single-chain variable fragment (scFv) antibody library was constructed [See C. F. Barbas, Phage Display: a Laboratory Manual, Cold Spring Harbor Laboratory Press, Cold Spring Harbor, N Y, 2001]. After five rounds of biopanning on the ROS1 synthetic peptide ([…]-[…]) conjugated to either bovine serum albumin (BSA) or ovalbumin (OVA), the single-chain variable fragment (scFv)-displaying phages were subjected to enzyme-linked immunosorbent assay (ELISA) [See C. F. Barbas, Phage Display: a Laboratory Manual, Cold Spring Harbor Laboratory Press, Cold Spring Harbor, N Y, 2001; S. Park, D. H. Lee, J. G. Park, Y. T. Lee, J. Chung, A sensitive enzyme immunoassay for measuring cotinine in passive smokers, Clin. Chim. Acta 411 (2010) 1238-1242].
(In general: ELISA stands for enzyme-linked immunosorbent assay.)

Test [2] deals with B1. Put plainly: alanine scanning ELISA, 3B20 scFv-Cκ coated, ROS1-hFc mutant in solution, HRP anti-hFc. How it is done:
as §1, §2

Test [3] deals with B4. The description is as above. The protocol: as §1, §2
The target in test [4] is B6. The description is as above. How it is done: as §1, §2
Test [5] concerns the target B3. The test is described as above. How it is done:
as §1, §2

Test [6] deals with T3, GRP75 (Enzo Life Sciences) (UniProt P38646 47-679, limits assumed).
T3 construct: Purchased protein coated in ELISA
Put plainly: phage ELISA. The protocol:
Each codon in the bracket in the forward primer sequence of the second fragment was replaced with NNK. Subsequently, these PCR fragments were purified and subjected to overlap extension PCR. The overlap extension PCR was performed using 100 ng PCR fragments each by after preparatory modification of DNA at 95° C. for 5 minutes, 30 cycles of DNA modification at 95° C. for 30 seconds, combination of primers at 56° C. for 30 seconds, and elongation at 72° C. for 30 seconds, and then it was terminated after incubation for 5 minutes. The obtained overlap extension PCR products were purified and subcloned into a pComb3XSS phagemid vector using Sfi I restriction enzyme and transformed into *Escherichia coli* [See C. F. Barbas, Phage Display: a Laboratory Manual, Cold Spring Harbor Laboratory Press, Cold Spring Harbor, N Y, 2001]. From the output titer plate, phages were rescued from randomly selected colonies and subjected to ELISA [See C. F. Barbas, Phage Display: a Laboratory Manual, Cold Spring Harbor Laboratory Press, Cold Spring Harbor, N Y, 2001].
Example 3. Screening of Modified scFv with Enhanced Specificity from the HCDR3 Site-Directed Mutagenesis Library Based on the result of Example 2, to generate monoclonal antibody clones nonreactive to Hsp70 but reactive to ROS1, HCDR3 site-directed mutagenesis libraries were constructed. […]

Test [7] addresses T4, Heat shock 70 kDa protein 1A/1B, from HEK293T cell lysate (human, UniProt P0DMV8 2-641).
T4 construct: Identified by LC-MS/MS against the IPI human database; also called Hsp70; HSP70
Nature of the test: immunoprecipitation with 3B20 scFv-rFc from HEK293T lysates, LC-MS of the 70 kDa band. How it is done: (§3) HEK293T cell lines overexpressing either ROS1 or GFP were lysed in cold lysis buffer [1% Triton X-100, 150 mM NaCl, 50 mM Tris (pH 8.0)] containing 1 mM phenylmethane sulfonyl fluoride (Merck KGaA, Darmstadt, Germany) a protease inhibitor cocktail (Roche), and a phosphatase inhibitor cocktail (Roche). Lysates were incubated with 3B20 scFv or 3B20 scFv-G1K fused to the rFc fusion protein (5 μg/mL) and protein A-conjugated agarose beads (RepliGen, Waltham, MA, USA). After washing, proteins bound to beads were eluted by boiling in NuPAGE LDS Sample Buffer (Thermo Fisher Scientific) and subjected to SDS-PAGE and immunoblotting (See Reference example 4). The eluted proteins separated by SDS-PAGE were visualized using Coomassie Brilliant Blue R250 (Merck). […]
(§4) To investigate the proteins reactive to 3B20 scFv, immunoprecipitation was performed using a 3B20 scFv-rFc fusion protein from HEK293T cells transfected with lentiviral vector encoding human ROS1 (full-length) or GFP (control). […] Bands corresponding to 70 kDa and 260 kDa were excised from the gel and analyzed by liquid chromatography/MS. The obtained result was shown in FIG. 1c, and the list of proteins analyzed in (A) and (B) bands represented by arrows in FIG. 1c was shown in the following Table 2. As expected, ROS1 (accession number: IPI0028965; SEQ ID NO: 9) was detected in a band of 260 kDa.

Test [8] addresses T5, Stress-70 protein, mitochondrial (GRP75), from HEK293T cell lysate (human, UniProt P38646 47-679).
T5 construct: Identified by LC-MS/MS against the IPI human database; also called IPI00007765 (+1)
Described as above. The protocol: as §3, §4

Numbering of substitutions follows the chain as printed. Names may count otherwise.

T2 sequence (P02769 25-607 limits assumed): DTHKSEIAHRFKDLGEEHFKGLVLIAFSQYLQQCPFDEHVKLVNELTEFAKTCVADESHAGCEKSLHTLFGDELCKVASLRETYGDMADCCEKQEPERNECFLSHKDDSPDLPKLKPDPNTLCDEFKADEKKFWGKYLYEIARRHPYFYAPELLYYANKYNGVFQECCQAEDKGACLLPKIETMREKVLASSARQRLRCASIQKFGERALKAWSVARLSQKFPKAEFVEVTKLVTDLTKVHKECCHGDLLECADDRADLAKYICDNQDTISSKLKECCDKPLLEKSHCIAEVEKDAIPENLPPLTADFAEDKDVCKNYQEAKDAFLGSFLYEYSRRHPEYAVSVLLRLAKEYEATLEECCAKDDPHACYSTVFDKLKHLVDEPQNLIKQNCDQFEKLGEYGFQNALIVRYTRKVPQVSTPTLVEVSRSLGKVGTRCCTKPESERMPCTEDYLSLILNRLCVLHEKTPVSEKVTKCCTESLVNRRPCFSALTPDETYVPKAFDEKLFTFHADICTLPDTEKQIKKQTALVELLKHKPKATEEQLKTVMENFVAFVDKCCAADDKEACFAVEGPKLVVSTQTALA
T3 sequence (P38646 47-679 limits assumed): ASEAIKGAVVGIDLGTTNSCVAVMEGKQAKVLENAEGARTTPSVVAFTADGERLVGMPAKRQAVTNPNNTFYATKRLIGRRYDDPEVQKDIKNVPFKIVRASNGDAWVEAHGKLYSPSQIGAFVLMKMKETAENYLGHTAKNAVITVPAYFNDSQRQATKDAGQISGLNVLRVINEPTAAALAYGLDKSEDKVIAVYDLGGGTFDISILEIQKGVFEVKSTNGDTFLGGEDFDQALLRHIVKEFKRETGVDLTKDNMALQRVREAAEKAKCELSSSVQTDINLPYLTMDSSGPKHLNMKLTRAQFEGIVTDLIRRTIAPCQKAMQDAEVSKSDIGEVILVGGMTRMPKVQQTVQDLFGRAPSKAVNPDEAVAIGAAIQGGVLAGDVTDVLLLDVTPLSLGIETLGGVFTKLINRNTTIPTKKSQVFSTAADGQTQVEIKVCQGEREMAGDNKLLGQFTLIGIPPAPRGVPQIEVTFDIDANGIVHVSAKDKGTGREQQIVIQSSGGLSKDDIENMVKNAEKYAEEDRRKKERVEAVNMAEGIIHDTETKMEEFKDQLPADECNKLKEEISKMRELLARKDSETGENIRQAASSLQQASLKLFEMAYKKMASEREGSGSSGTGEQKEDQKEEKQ
T5 sequence (P38646 47-679 limits assumed): as above
T4 sequence (P0DMV8 2-641 limits assumed): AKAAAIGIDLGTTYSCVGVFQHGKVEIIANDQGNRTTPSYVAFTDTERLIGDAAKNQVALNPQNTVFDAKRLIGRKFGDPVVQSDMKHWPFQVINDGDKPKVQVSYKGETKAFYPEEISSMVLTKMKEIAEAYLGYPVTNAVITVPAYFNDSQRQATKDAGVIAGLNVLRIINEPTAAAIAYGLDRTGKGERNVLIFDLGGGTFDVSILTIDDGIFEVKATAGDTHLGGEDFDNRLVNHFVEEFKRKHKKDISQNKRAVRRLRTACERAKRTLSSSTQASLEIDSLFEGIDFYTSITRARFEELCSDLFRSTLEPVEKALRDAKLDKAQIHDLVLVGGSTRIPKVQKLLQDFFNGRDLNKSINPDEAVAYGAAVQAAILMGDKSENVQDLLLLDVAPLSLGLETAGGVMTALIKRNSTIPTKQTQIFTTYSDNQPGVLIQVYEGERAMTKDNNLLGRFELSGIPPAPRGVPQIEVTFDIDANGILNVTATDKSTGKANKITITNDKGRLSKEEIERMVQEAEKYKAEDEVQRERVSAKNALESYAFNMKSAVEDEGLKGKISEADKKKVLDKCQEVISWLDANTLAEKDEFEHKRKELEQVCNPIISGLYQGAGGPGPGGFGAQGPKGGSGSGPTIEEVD

Take B1: the binding result with bovine serum albumin is given as “no binding”.

For B2, in the test with bovine serum albumin, the binding result is “no binding”.

On to B3, for which the binding result with bovine serum albumin is “no binding”.

For the molecule B4, the binding result with bovine serum albumin is given as “no binding”.

For B5, in the test with bovine serum albumin, the binding result is “no binding”.

Regarding B6, the binding result in the test with bovine serum albumin was “no binding”.

Regarding B7, the binding result with bovine serum albumin was “no binding”.

In the case of B8, the binding result in test [1] is “binds”.

As to B9, the binding result in test [2], in test [3], in test [4] and in test [5] was “binds” each time.

For B10, the binding result in test [6] is “no binding”.

On to B11, for which the binding result in test [7] and in [8] was “binds” throughout.
